Key:
[1] = test system: CD11c^+ CD11b^+ CD205^+ cells; assay: Flow analysis of lung CD11c+ dendritic cells after IL-33 challenge; assay type: in vivo, mouse; conditions: for change in CD11c^+ CD11b^+ CD205^+ cells: IL-33, n = 3
Method: Male mice in each group, 3-5 weeks old were anesthetized using Isoflurane. The mice were treated intranasal with 200ng/mice/day for four continues days. By the fifth day the mice were killed by CO2 suffocation, and bronchial alveolar lavage fluid (BALF) was extracted using PBS. The lungs were extracted and fixed using 10% para formaldehyde. Immunofluresence of slide sections was performed. Slides were analyzed using anti-PIN1 antibodies and anti-IRAK-M antibodies or IgG as control and were counterstained using DAPI. In some cases, cells obtained from BALF were cytospined and the cells were fixed and stained in the same manner. For staining of the cells, Diff-Quick (Diff-Quik) Staining Protocol were used. All animal work was carried out in compliance with the ethical regulations approved by the Animal Care Committee, Beth Israel Deaconess Medical Center, Boston, MA, USA. The permission was granted to perform animal experiments by the Institutional Animal Care and Use Committee at Beth Israel Deaconess Medical Center, Boston, MA, USA.
Lungs were digested using Kollagenase D and dispase and the dendritic cells populations (CD11c^+ CD205^+ CD11b^+) were determined by staining the cells using the following antibodies: PE anti mouse CD11c (catalog number 117307), APC anti mouse CD205 (catalog number 138205), FITC anti mouse CD11b (catalog number 101205). For co stimulatory protein expression, FITC anti mouse CD40 (catalog number 124607), FITC anti mouse CD80 (catalog number 104705), FITC anti mouse CD86 (catalog number 105005) were used. For T cell (CD3^+ CD4^+) population isolation, the cells were stained with APC anti mouse CD3^+ (catalog number 100235) FITC anti mouse CD4^+ (catalog number 100405) before the cells were cell sorted. Human BALF samples were stained with FITC anti human CD15 (catalog number 301903) or FITC anti human CD205 (catalog number 342206). All antibodies were purchased from Biolegend and diluted according to manufacture instruction (1:100 dilution). Cells were analyzed using LSRII flow cytometer and FlowJo software. For cytospin the cells were spun onto glass slides, air dried and fixed using 4%PFA and stained with the indicated antibodies.

PIN1 = PIN1 enzymatic (PPIase) activity in DC2.4 cells; assay type: cell-based, C57BL/6; conditions: IL-33 100 ng/ml, 5 min, substrate Suc-Ala-Glu-Pro-Phe-pNa
Method: DC2.4 cell line were either treated with 100ng/ml IL-33 for indicate time (0, 5 and 15 min). The cells were harvested and homogenized in a reaction buffer containing 100 mM NaCl, 50 mM HEPES, pH 7, 2 mM DTT, and 0.04 mg/ml BSA. The lysates were cleared by centrifugation at 12,000 g for 10 minutes (4 °C). PPIase activity was measured using equal amounts of […] cytoplasmic lysates and α-chymotrypsin using a synthetic tetrapeptide substrate Suc-Ala-Glu-Pro-Phe-pNa (Peptides International). Absorption at 390 nm was measured using an Ultrospec 2000 spectrophotometer. The results are expressed as the mean of 3 measurements from a single experiment and are representative of 3 independent experiments.

CD3+ CD4+ T cells = assay: Lung CD3+ CD4+ T cells after IL-33 challenge; assay type: in vivo, mouse; conditions: IL-33 intranasal, sorted lung T cells, n=3
Method: Lungs were digested using Kollagenase D and dispase and the dendritic cells populations (CD11c^+ CD205^+ CD11b^+) were determined by staining the cells using the following antibodies: PE anti mouse CD11c (catalog number 117307), APC anti mouse CD205 (catalog number 138205), FITC anti mouse CD11b (catalog number 101205). For co stimulatory protein expression, FITC anti mouse CD40 (catalog number 124607), FITC anti mouse CD80 (catalog number 104705), FITC anti mouse CD86 (catalog number 105005) were used. […] Cells were analyzed using LSRII flow cytometer and FlowJo software. […]
Supplementary Figure 6. […] ( b) The indicated lungs were digested and the CD3+ CD4+ cells were monitored and cell sorted using APC-CD3 and FITC-CD4 antibodies respectively, for further analysis. […] (c) Sorted CD3+ CD4+ cells from the indicated mice after PBS and IL-33 challenge were analyzed for IL-13 and IL-5 expression (n=3).
(d) Quantification of figure 6E; Dendritic cell CD11b+ expression in WT, Pin1KO and IRAK-M KO mice lungs, either treated with IL-33 or PBS as before. (e) WT and IRAK-M KO mice were either treated with IL-33 or PBS, the lungs were digested and the CD11c+ cells were analyzed for the expression of costimulatory proteins CD40, CD80 and CD86. […]

B1: IL-33: Recombinant mouse IL-33 purchased from BioLegend (protein, UniProt Q8BVZ5 1-266, looked up)
Interleukin-33: MRPRMKYSNSKISPAKFSSTAGEALVPPCKIRRSQQKTKEFCHVYCMRLRSGLTIRKETSYFRKEPTKRYSLKSGTKHEENFSAYPRDSRKRSLLGSIQAFAASVDTLSIQGTSLLTQSPASLSTYNDQSVSFVLENGCYVINVDDSGKDQEQDQVLLRYYESPCPASQSGDGVDGKKLMVNMSPIKDTDIWLHANDKDYSVELQRGDVSPPEQAFFVLHKKSSDFVSFECKNLPGTYIGVKDNQLALVEEKDESCNNIMFKLSKI
B1 was tested, and the “change in CD11c^+ CD11b^+ CD205^+ cells” value ([1]; IRAK-M KO mice) was “non significant (NS) increase”, the “CD40 and CD80 overexpression in lung CD11c^+ cells” value ([1]; IRAK-M KO mice, IL-33 treated, n=3) was “attenuated” and the “change in CD11c^+ CD11b^+ CD205^+ cells” value ([1]; PIN1 KO mice) was “more moderate increase”. The “CD40 and CD80 expression in lung CD11c^+ cells” value ([1]; WT mice, IL-33 treated, n=3) was “elevated”, the “induction of CD11c^+ CD11b^+ CD205^+ cells” value ([1]; WT mice, IL-33 vs PBS, n = 3, P < 0.05) was 3 fold and the PIN1 activity (PIN1) was “dramatically elevated PIN1 activity”. For the same molecule, the “Il13 and -5 expression in CD3+ CD4+ T cells” value (CD3+ CD4+ T cells) was “markedly induced expression”.

Source: paper PMC5913134, “The IL-33-PIN1-IRAK-M axis is critical for type 2 immunity in IL-33-induced allergic airway inflammation” (Nature Communications, 2018)
